In US20220064278A1 (Janssen / Centocor, published 2022):
Numbering of substitutions follows the chain as printed. Values belong to the binder of their own block, whether it stands above or below them.

How the values were obtained:
recombinant human TNFα [1] = target: T1, recombinant human TNFα (human, UniProt P01375 77-233); test: cell-based or functional assay
recombinant human TNFα [2] = target: T1, recombinant human TNFα; test: inhibition of 125I-TNFα binding to plate-coated p55-sf2 by hybridoma supernatant
recombinant human TNFα [3] = target: T1, recombinant human TNFα; test: competition: mAb in hybridoma supernatant preincubated with 5 ng/ml 125I-TNFα, mixture added to plate-coated p55-sf2, cpm bound counted; blocked ligand p55-sf2

neutralizing TNFα bioactivity (recombinant human TNFα [1]): 4 fold (against TNV14)
fold better at blocking TNF binding than TNV118 and TNV14 (recombinant human TNFα [2]): ~4 fold
IC50 (read off the curve) (recombinant human TNFα [3]): ~4 ng/mL
B1: TNV148 (antibody, V domains shown)
VH: QVQLVESGGGVVQPGRSLRLSCAASGFIFSSYAMHWVRQAPGNGLEWVAFMSYDGSNKKYADSVKGRFTISRDNPKNTLYLQMNSLRAEDTAVYYCARDRGIAAGGNYYYYGMDVWGQGTTVTVSS
VL: EIVLTQSPATLSLSPGERATLSCRASQSVYSYLAWYQQKPGQAPRLLIYDASNRATGIPARFSGSGSGTDFTLTISSLEPEDFAVYYCQQRSNWPPFTFGPGTKVDIKR

IC50 (read off the curve) (recombinant human TNFα [3]): ~4 ng/mL
B2: TNV15 (antibody, V domains shown)
VH: B1 VH with I28T, N43K, M51I, S52L, P75S, T78A, I102V, A103S
VL: EIVLTQSPATLSLSPGERATLSCRASQSVSSYLAWYQQKPGQAPRLLIYDASNRATGIPARFSGSGSGTDFTLTISSLEPEDFAVYYCQQRSNWPPFTFGPGTKVDIK

neutralizing TNFα bioactivity (recombinant human TNFα [1]): 4 fold (against TNV14)
IC50 (read off the curve) (recombinant human TNFα [3]): ~4 ng/mL
B3: TNV196 (antibody, V domains shown)
VH: B1 VH with I28T, N43K, M51I, Y60S, I70V, P75S, Y80F, Y94F, A103G
VL: B2 VL with S30Y
